± gives the standard deviation of the averaged measurements.
B1: library; a variant is named by its letters at N, in order (parent)
chain: GCUGUCACCGAGAAACUGUGAAGUAUAUCUUAAACCUGGGCACUUAAAAGAUAUAUGGAGUUAGUAGUGCAACCUGCUCGGUCUGAUGAGUCCNNNNNNGGACGAAACAGC

Tests used:
cyclic di-GMP [1] = variants of: B1; test: FACS-Seq fitted mean relative fluorescence mCherry/BFP without ligand (log10 relative fluorescence); HEK293T; ligand: cyclic di-GMP (c-di-GMP-II aptamer); higher = higher reporter protein expression; conditions: ligand present: no
Experimental: (§1)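 Hammerhead (sTRSV) ribozyme switch libraries with a ligand aptamer grafted on stem I and a randomized N4-6 loop II, cloned into the 3' UTR of mCherry and transiently transfected into HEK293T cells; RNA-Seq 72 h post transfection with ligand added 1 h before transfection; RNA read count / plasmid DNA read count normalized to the non-cleaving sTRSVctl (x100), log10; sequences with >100 DNA reads. FACS-Seq: lentiviral library sorted into 6 bins after 48 h ligand, log-normal fit mean of mCherry/BFP scaled to controls. Printed sequences are partial switch sequences.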

cyclic di-GMP [2] = variants of: B1; test: normalized RNA/DNA level without ligand (relative to sTRSVctl = 100) (log10 (% of sTRSVctl)); HEK293T; ligand: cyclic di-GMP (c-di-GMP-II aptamer); higher = less ribozyme self-cleavage, higher mRNA level; conditions: reporter: mCherry (pCS4076), ligand present: no
Experimental: as §1

cyclic di-GMP [3] = variants of: B1; test: FACS-Seq fitted mean relative fluorescence mCherry/BFP with ligand (log10 relative fluorescence); HEK293T; ligand: cyclic di-GMP (c-di-GMP-II aptamer); ligand concentration (+) FACS-Seq: 1 mM; higher = higher reporter protein expression; conditions: ligand present: yes
Experimental: as §1

cyclic di-GMP [4] = variants of: B1; test: normalized RNA/DNA level with ligand (relative to sTRSVctl = 100) (log10 (% of sTRSVctl)); HEK293T; ligand: cyclic di-GMP (c-di-GMP-II aptamer); ligand concentration (+) RNA-Seq: 1 mM; higher = less ribozyme self-cleavage, higher mRNA level; conditions: reporter: mCherry (pCS4076), ligand present: yes
Experimental: as §1

Row | Variant | FACS-Seq fitted mean (log10) (cyclic di-GMP [1]) | normalized RNA/DNA level without ligand (log10) (cyclic di-GMP [2]) | FACS-Seq fitted mean (log10) (cyclic di-GMP [3]) | normalized RNA/DNA level with ligand (log10) (cyclic di-GMP [4])
1 | AAAACG | -0.442 ± 0.098 | 1.5 ± 0.072 | -0.105 ± 0.12 | 1.71 ± 0.079
2 | GAACCC | 0.196 ± 0.15 | 1.82 ± 0.026 | 0.39 ± 0.019 | 1.91 ± 0.12
3 | CAAGUU | -0.164 ± 0.058 | 1.71 ± 0.027 | 0.078 ± 0.065 | 1.86 ± 0.12
4 | CAAGUA | -0.495 ± 0.0052 | 1.46 ± 0.13 | -0.203 ± 0.02 | 1.63 ± 0.07
5 | GAAAAU | -0.15 ± 0.048 | 1.55 ± 0.048 | 0.162 ± 0.015 | 1.74 ± 0.1
6 | GAAAAG | -0.45 ± 0.058 | 1.575 ± 0.0029 | -0.228 ± 0.032 | 1.74 ± 0.14
7 | GAAAAA | -0.369 ± 0.068 | 1.41 ± 0.1 | -0.0537 ± 0.033 | 1.61 ± 0.12
8 | CAAAUA | -0.296 ± 0.0065 | 1.28 ± 0.11 | -0.211 ± 0.2 | 1.46 ± 0.14
9 | CAAAUU | -0.59 ± 0.046 | 1.45 ± 0.12 | -0.349 ± 0.046 | 1.67 ± 0.076
10 | AAAGGU | -0.701 ± 0.017 | 1.54 ± 0.054 | -0.44 ± 0.065 | 1.71 ± 0.1
11 | AAAGGG | -0.506 ± 0.051 | 1.37 ± 0.078 | -0.2804 ± 0.00041 | 1.59 ± 0.077
12 | AAAGGA | -0.691 ± 0.009 | 1.31 ± 0.13 | -0.5317 ± 0.0025 | 1.47 ± 0.11
13 | UAAAGA | -0.0343 ± 0.1 | 1.6 ± 0.047 | 0.167 ± 0.024 | 1.73 ± 0.12
14 | AAAAUC | 0.0212 ± 0.1 | 1.62 ± 0.028 | 0.2003 ± 0.0016 | 1.76 ± 0.06
15 | AAAAUU | -0.708 ± 0.058 | 1.62 ± 0.034 | -0.4137 ± 0.00058 | 1.76 ± 0.085
16 | AAAAUG | -0.0352 ± 0.079 | 1.5 ± 0.05 | 0.319 ± 0.046 | 1.7 ± 0.12
17 | AAAUAA | -0.515 ± 0.032 | 1.45 ± 0.067 | -0.21 ± 0.07 | 1.68 ± 0.12
18 | UAACUC | -0.459 ± 0.11 | 1.78 ± 0.016 | -0.294 ± 0.11 | 1.88 ± 0.085
19 | UAACUU | -0.637 ± 0.031 | 1.65 ± 0.005 | -0.458 ± 0.042 | 1.79 ± 0.12
20 | GAAGGA | -0.325 ± 0.067 | 1.44 ± 0.093 | 0.0781 ± 0.006 | 1.59 ± 0.067
21 | CAAGAA | -0.432 ± 0.1 | 1.23 ± 0.12 | -0.059 ± 0.057 | 1.48 ± 0.13
22 | GAAUAA | -0.287 ± 0.05 | 1.44 ± 0.067 | -0.0182 ± 0.045 | 1.68 ± 0.15

Row | Variant | FACS-Seq fitted mean (log10) (cyclic di-GMP [1]) | normalized RNA/DNA level without ligand (log10) (cyclic di-GMP [2]) | FACS-Seq fitted mean (log10) (cyclic di-GMP [3]) | normalized RNA/DNA level with ligand (log10) (cyclic di-GMP [4])
23 | GAAUAG | -0.662 ± 0.05 | 1.64 ± 0.018 | -0.40149 ± 0.00037 | 1.78 ± 0.15
24 | AAACAU | -0.286 ± 0.077 | 1.6 ± 0.019 | -0.0737 ± 0.18 | 1.77 ± 0.11
25 | AAACAA | -0.921 ± 0.12 | 1.44 ± 0.051 | -0.77 ± 0.014 | 1.62 ± 0.1
26 | AAACAG | -0.103 ± 0.1 | 1.55 ± 0.053 | 0.169 ± 0.015 | 1.73 ± 0.095
27 | AAACAC | -0.457 ± 0.011 | 1.6 ± 0.035 | -0.124 ± 0.07 | 1.75 ± 0.082
28 | UAAGUU | 0.0182 ± 0.011 | 1.577 ± 0.0025 | 0.229 ± 0.08 | 1.77 ± 0.094
29 | UAAGUA | -0.292 ± 0.034 | 1.609 ± 0.0095 | -0.0651 ± 0.011 | 1.78 ± 0.086
30 | UAAGUG | 0.0931 ± 0.039 | 1.61 ± 0.022 | 0.27 ± 0.01 | 1.78 ± 0.12
31 | GAAGCG | -0.36 ± 0.013 | 1.841 ± 0.018 | -0.268 ± 0.16 | 1.87 ± 0.069
32 | GAAGCA | -0.476 ± 0.078 | 1.8 ± 0.082 | -0.329 ± 0.2 | 1.88 ± 0.15
33 | UAAGGA | -0.894 ± 0.046 | 1.54 ± 0.1 | -0.73 ± 0.051 | 1.7 ± 0.066
34 | UAAACA | 0.0579 ± 0.081 | 1.742 ± 0.0053 | 0.349 ± 0.078 | 1.85 ± 0.079
35 | GAAACA | -0.441 ± 0.093 | 1.61 ± 0.023 | -0.185 ± 0.018 | 1.73 ± 0.1
36 | AAAGUU | -0.298 ± 0.1 | 1.59 ± 0.068 | 0.0631 ± 0.068 | 1.77 ± 0.03
37 | AAAGUC | 0.135 ± 0.29 | 1.574 ± 0.0057 | 0.392 ± 0.048 | 1.75 ± 0.1
38 | CAAUAA | -0.688 ± 0.028 | 1.25 ± 0.083 | -0.398 ± 0.011 | 1.52 ± 0.074
39 | CAAUAU | -0.659 ± 0.028 | 1.49 ± 0.061 | -0.365 ± 0.019 | 1.67 ± 0.11
40 | UAAAUG | 0.102 ± 0.084 | 1.62 ± 0.0043 | 0.384 ± 0.037 | 1.83 ± 0.12
41 | UAAAUA | -0.362 ± 0.037 | 1.654 ± 0.0031 | -0.139 ± 0.088 | 1.78 ± 0.059
42 | UAAAUU | 0.0621 ± 0.17 | 1.631 ± 0.016 | 0.394 ± 0.011 | 1.77 ± 0.11
43 | GAACUA | -0.288 ± 0.19 | 1.6 ± 0.068 | 0.0146 ± 0.12 | 1.77 ± 0.091
44 | AAACUC | -0.854 ± 0.053 | 1.706 ± 0.0065 | -0.744 ± 0.039 | 1.83 ± 0.071

Row | Variant | FACS-Seq fitted mean (log10) (cyclic di-GMP [1]) | normalized RNA/DNA level without ligand (log10) (cyclic di-GMP [2]) | FACS-Seq fitted mean (log10) (cyclic di-GMP [3]) | normalized RNA/DNA level with ligand (log10) (cyclic di-GMP [4])
45 | AAACUU | -0.199 ± 0.0094 | 1.646 ± 0.0047 | 0.118 ± 0.0021 | 1.82 ± 0.091
46 | AAACUG | -0.426 ± 0.0086 | 1.53 ± 0.039 | -0.194 ± 0.0073 | 1.75 ± 0.092
47 | AAACUA | -0.338 ± 0.065 | 1.49 ± 0.031 | -0.0568 ± 0.0064 | 1.65 ± 0.11
48 | GAAAUA | 0.098 ± 0.25 | 1.47 ± 0.079 | 0.291 ± 0.031 | 1.65 ± 0.12
49 | GAAAUG | -0.4346 ± 0.0037 | 1.55 ± 0.067 | -0.122 ± 0.1 | 1.71 ± 0.11
50 | GAAAUU | -0.0957 ± 0.14 | 1.5921 ± 0.00088 | 0.215 ± 0.096 | 1.78 ± 0.11
51 | UAAUAG | -0.126 ± 0.087 | 1.667 ± 0.0048 | -0.0799 ± 0.024 | 1.83 ± 0.099
52 | AAAGAU | 0.0924 ± 0.13 | 1.52 ± 0.037 | 0.367 ± 0.016 | 1.71 ± 0.17
53 | AAAGAC | -0.0292 ± 0.22 | 1.56 ± 0.036 | 0.33 ± 0.099 | 1.75 ± 0.09
54 | UAACGC | -0.0408 ± 0.21 | 1.66 ± 0.04 | 0.122 ± 0.082 | 1.79 ± 0.17
55 | UAACGG | -0.162 ± 0.15 | 1.6716 ± 2.5e-05 | 0.21 ± 0.0062 | 1.82 ± 0.1
56 | UAACGA | -0.0411 ± 0.064 | 1.59 ± 0.026 | 0.272 ± 0.15 | 1.76 ± 0.089
57 | UAACGU | -0.388 ± 0.07 | 1.51 ± 0.095 | -0.125 ± 0.05 | 1.71 ± 0.12
58 | GAAGAU | -0.28 ± 0.1 | 1.5 ± 0.088 | 0.0337 ± 0.016 | 1.65 ± 0.14
59 | GAAGAA | -0.423 ± 0.0092 | 1.38 ± 0.15 | -0.233 ± 0.045 | 1.59 ± 0.08
60 | AAAGCU | -0.569 ± 0.092 | 1.63 ± 0.063 | -0.245 ± 0.025 | 1.78 ± 0.099
61 | AAACGG | -0.275 ± 0.019 | 1.5 ± 0.12 | 0.0867 ± 0.11 | 1.7 ± 0.1
62 | CAACAU | -0.377 ± 0.0095 | 1.43 ± 0.089 | -0.0626 ± 0.039 | 1.64 ± 0.13
63 | CAACAA | -0.326 ± 0.062 | 1.37 ± 0.11 | 0.0147 ± 0.011 | 1.53 ± 0.1
64 | AAAAGC | 0.0679 ± 0.01 | 1.58 ± 0.045 | 0.227 ± 0.045 | 1.73 ± 0.089
65 | AAAAGG | -0.489 ± 0.057 | 1.49 ± 0.12 | -0.254 ± 0.005 | 1.66 ± 0.093
66 | AAAAGA | -0.494 ± 0.013 | 1.36 ± 0.073 | -0.116 ± 0.009 | 1.56 ± 0.14
